Experimental data reported in patent US20080044360A1 (COLLAGEN MEDICAL, published 2008).
Bridge positions count the residues as written; N and C are the ends. Square brackets hold non-standard residues; d marks the D form. Ends that are not written are not given here. NMeA = CN[C@@H](C)C(=O)O; Sar = CNCC(=O)O

B1: SEQ ID NO 104 (peptide)
peptide: YHACYQA[Sar]CWIW
modifications: disulfide 4-9 (inferred)
notes: cyclic, disulfide
B2: SEQ ID NO 106 (peptide)
peptide: YHACYQAGCWIY
modifications: disulfide 4-9 (inferred)
notes: cyclic, disulfide
B3: SEQ ID NO 108 (peptide)
peptide: YHACYQAGCYIY
modifications: disulfide 4-9 (inferred)
notes: cyclic, disulfide
B4: SEQ ID NO 110 (peptide)
peptide: YSACYQAGCYIY
modifications: disulfide 4-9 (inferred)
notes: cyclic, disulfide
B5: SEQ ID NO 132 (peptide)
peptide: YAACYQAGCWIW
modifications: disulfide 4-9 (inferred)
notes: cyclic, disulfide
B6: SEQ ID NO 136 (peptide)
peptide: YHACYQAGCAIW
modifications: disulfide 4-9 (inferred)
notes: cyclic, disulfide
B7: SEQ ID NO 105 (peptide)
peptide: YHACYQ[NMeA]GCWIW
modifications: disulfide 4-9 (inferred)
notes: cyclic, disulfide; also called YHACYQA'GCWIW
B8: SEQ ID NO 109 (peptide)
peptide: YSACYQAGCWIW
modifications: disulfide 4-9 (inferred)
notes: cyclic, disulfide
B9: SEQ ID NO 131 (peptide)
peptide: AHACYQAGCWIW
modifications: disulfide 4-9 (inferred)
notes: cyclic, disulfide
B10: SEQ ID NO 134 (peptide)
peptide: YHACYAAGCWIW
modifications: disulfide 4-9 (inferred)
notes: cyclic, disulfide
B11: SEQ ID NO 135 (peptide)
peptide: YHACYQAACWIW
modifications: disulfide 4-9 (inferred)
notes: cyclic, disulfide
B12: SEQ ID NO 138 (peptide)
peptide: YHACYQAGCWIA
modifications: disulfide 4-9 (inferred)
notes: cyclic, disulfide
B13: SEQ ID NO 111 (peptide)
peptide: YHASYQAGSWIW
notes: printed without cysteines (S for C)
B14: SEQ ID NO 114 (peptide)
peptide: WTCSGDEYTWHCNYE
modifications: disulfide 3-12 (inferred)
notes: cyclic, disulfide
B15: SEQ ID NO 122 (peptide)
peptide: GQWTCSGDEYTWHCNYE
modifications: disulfide 5-14 (inferred)
notes: cyclic, disulfide
B16: SEQ ID NO 115 (peptide)
peptide: DWTCSGDPYTWHCNYE
modifications: disulfide 4-13 (inferred)
notes: cyclic, disulfide
B17: SEQ ID NO 119 (peptide)
peptide: DWTCSGDEFTWHCNYE
modifications: disulfide 4-13 (inferred)
notes: cyclic, disulfide
B18: SEQ ID NO 120 (peptide)
peptide: DWTCSGDEYAWHCNY[dE]
modifications: disulfide 4-13 (inferred)
notes: cyclic, disulfide
B19: SEQ ID NO 147 (peptide)
peptide: GQWTCSGDEYTAHCNYE
modifications: disulfide 5-14 (inferred); not fully specified (C-terminus)
notes: cyclic, disulfide
B20: SEQ ID NO 159 (peptide)
peptide: YHACYQAG[dC]WIW
modifications: disulfide 4-9 (inferred); not fully specified (C-terminus); printed as YHACYQAGcWIW
notes: cyclic, disulfide
B21: SEQ ID NO 167 (peptide)
peptide: QWT[dC]SGDEYTWHCNYE
modifications: disulfide 4-13 (inferred); not fully specified (N-terminus, C-terminus); printed as QWTcSGDEYTWHCNYE
notes: cyclic, disulfide
B22: SEQ ID NO 174 (peptide)
peptide: QWTCSGDEYTW[dH]CNYE
modifications: disulfide 4-13 (inferred); not fully specified (N-terminus); printed as QWTCSGDEYTWhCNYE
notes: cyclic, disulfide
B23: SEQ ID NO 53 (peptide)
peptide: GWFCKLVDGNWECSTK
modifications: disulfide 4-13 (inferred)
notes: cyclic, disulfide
B24: SEQ ID NO 54 (peptide)
peptide: MWNCTMTKSGWRCFEK
modifications: disulfide 4-13 (inferred)
notes: cyclic, disulfide
B25: SEQ ID NO 55 (peptide)
peptide: SWNCHWRNQGWLCSGG
modifications: disulfide 4-13 (inferred)
notes: cyclic, disulfide
B26: SEQ ID NO 56 (peptide)
peptide: SWNCHMIRNEWRCTGH
modifications: disulfide 4-13 (inferred)
notes: cyclic, disulfide
B27: SEQ ID NO 57 (peptide)
peptide: RWTCDLQRGDWQCSTI
modifications: disulfide 4-13 (inferred)
notes: cyclic, disulfide
B28: SEQ ID NO 58 (peptide)
peptide: GWVCMMRETDWNCSI
modifications: disulfide 4-13 (inferred)
notes: cyclic, disulfide
B29: SEQ ID NO 59 (peptide)
peptide: HWQCRLTDYGWNCDER
modifications: disulfide 4-13 (inferred)
notes: cyclic, disulfide
B30: SEQ ID NO 60 (peptide)
peptide: EWHCVLNDFRWTCGGD
modifications: disulfide 4-13 (inferred)
notes: cyclic, disulfide
B31: SEQ ID NO 61 (peptide)
peptide: KWSCYMVDHQWYCREF
modifications: disulfide 4-13 (inferred)
notes: cyclic, disulfide
B32: SEQ ID NO 62 (peptide)
peptide: HWSCYLGDNGWNCHDR
modifications: disulfide 4-13 (inferred)
notes: cyclic, disulfide
B33: SEQ ID NO 63 (peptide)
peptide: NWYCSQALDNWSCKLR
modifications: disulfide 4-13 (inferred)
notes: cyclic, disulfide
B34: SEQ ID NO 64 (peptide)
peptide: TWICSHNDKGWTCGDQ
modifications: disulfide 4-13 (inferred)
notes: cyclic, disulfide
B35: SEQ ID NO 69 (peptide)
peptide: HWQCGEKMSFWSCELV
modifications: disulfide 4-13 (inferred)
notes: cyclic, disulfide
B36: SEQ ID NO 70 (peptide)
peptide: FWRCALLDGHWQCTDH
modifications: disulfide 4-13 (inferred)
notes: cyclic, disulfide
B37: SEQ ID NO 71 (peptide)
peptide: SWHCALMGSRWVCGQN
modifications: disulfide 4-13 (inferred)
notes: cyclic, disulfide
B38: SEQ ID NO 72 (peptide)
peptide: EWHCVFIQGDWLCNSG
modifications: disulfide 4-13 (inferred)
notes: cyclic, disulfide
B39: SEQ ID NO 73 (peptide)
peptide: SWHCALVENSWQCSEA
modifications: disulfide 4-13 (inferred)
notes: cyclic, disulfide
B40: SEQ ID NO 75 (peptide)
peptide: ERNCVLNDFRWTCGGD
modifications: disulfide 4-13 (inferred)
notes: cyclic, disulfide
B41: SEQ ID NO 76 (peptide)
peptide: FGACDIFPTFHTCPGV
modifications: disulfide 4-13 (inferred)
notes: cyclic, disulfide
B42: SEQ ID NO 77 (peptide)
peptide: GWQCQGTDSLDWKCLYM
modifications: disulfide 4-14 (inferred)
notes: cyclic, disulfide
B43: SEQ ID NO 78 (peptide)
peptide: TWACDLDEYGGWQCYTG
modifications: disulfide 4-14 (inferred)
notes: cyclic, disulfide
B44: SEQ ID NO 79 (peptide)
peptide: FWTCELDFRQSWYCYDK
modifications: disulfide 4-14 (inferred)
notes: cyclic, disulfide
B45: SEQ ID NO 4 (peptide)
peptide: TWMCVDPPLWRCWVQ
modifications: disulfide 4-12 (inferred)
notes: cyclic, disulfide
B46: SEQ ID NO 86 (peptide)
peptide: SWYCDWDDRKGWMCGSD
modifications: disulfide 4-14 (inferred)
notes: cyclic, disulfide
B47: SEQ ID NO 87 (peptide)
peptide: HWTCDQAKGGAWSCSST
modifications: disulfide 4-14 (inferred)
notes: cyclic, disulfide
B48: SEQ ID NO 88 (peptide)
peptide: FWTCMRDQVGEWHCGTE
modifications: disulfide 4-14 (inferred)
notes: cyclic, disulfide
B49: SEQ ID NO 89 (peptide)
peptide: KWHCELDSHMEWSCSGH
modifications: disulfide 4-14 (inferred)
notes: cyclic, disulfide
B50: SEQ ID NO 90 (peptide)
peptide: TWACGWTTTGWDNCRWI
modifications: disulfide 4-14 (inferred)
notes: cyclic, disulfide
B51: SEQ ID NO 91 (peptide)
peptide: TWACGWTTAGWDNCRWI
modifications: disulfide 4-14 (inferred)
notes: cyclic, disulfide
B52: SEQ ID NO 92 (peptide)
peptide: TWACGWTTTGWDNCRWI
modifications: disulfide 4-14 (inferred)
notes: cyclic, disulfide

Assays:
[1] = target: T1, human collagen type I, acid soluble, extracted from placenta (Sigma C7774) (human, UniProt P02452 162-1218; P08123 80-1119); experiment: dried collagen assay
T1 construct: tissue extract, gelled and dried in wells; also called dried human collagen; h-Collagen
T1 sequence (P02452 162-1218 limits assumed, chain 1 of 2): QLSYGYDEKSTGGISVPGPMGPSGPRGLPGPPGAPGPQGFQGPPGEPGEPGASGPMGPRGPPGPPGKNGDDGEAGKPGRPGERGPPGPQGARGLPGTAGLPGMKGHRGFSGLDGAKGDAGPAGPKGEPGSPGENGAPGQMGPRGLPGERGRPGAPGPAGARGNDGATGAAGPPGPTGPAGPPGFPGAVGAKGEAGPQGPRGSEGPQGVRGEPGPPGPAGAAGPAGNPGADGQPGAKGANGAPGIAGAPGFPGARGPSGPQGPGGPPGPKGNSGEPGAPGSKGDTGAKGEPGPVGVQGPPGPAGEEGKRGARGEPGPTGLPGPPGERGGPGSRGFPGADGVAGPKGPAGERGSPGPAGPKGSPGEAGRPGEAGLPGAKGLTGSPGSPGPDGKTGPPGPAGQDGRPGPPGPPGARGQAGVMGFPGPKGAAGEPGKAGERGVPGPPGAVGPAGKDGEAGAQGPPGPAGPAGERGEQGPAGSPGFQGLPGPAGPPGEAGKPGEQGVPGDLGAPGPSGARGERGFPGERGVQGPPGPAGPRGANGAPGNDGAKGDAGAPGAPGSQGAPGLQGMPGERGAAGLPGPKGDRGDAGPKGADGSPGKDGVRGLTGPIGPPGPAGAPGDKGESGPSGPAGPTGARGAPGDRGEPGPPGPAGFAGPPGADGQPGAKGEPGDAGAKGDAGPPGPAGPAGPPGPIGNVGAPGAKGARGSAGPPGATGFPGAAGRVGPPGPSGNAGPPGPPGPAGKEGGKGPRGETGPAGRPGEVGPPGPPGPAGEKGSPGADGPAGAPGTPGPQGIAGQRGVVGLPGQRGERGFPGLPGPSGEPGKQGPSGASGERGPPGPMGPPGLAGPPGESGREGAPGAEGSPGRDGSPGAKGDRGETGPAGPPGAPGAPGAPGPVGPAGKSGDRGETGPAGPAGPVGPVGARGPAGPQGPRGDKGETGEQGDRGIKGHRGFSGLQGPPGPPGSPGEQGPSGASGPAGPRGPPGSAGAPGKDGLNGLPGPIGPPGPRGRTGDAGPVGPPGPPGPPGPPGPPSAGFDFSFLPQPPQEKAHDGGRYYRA
T1 sequence (P08123 80-1119 limits assumed, chain 2 of 2): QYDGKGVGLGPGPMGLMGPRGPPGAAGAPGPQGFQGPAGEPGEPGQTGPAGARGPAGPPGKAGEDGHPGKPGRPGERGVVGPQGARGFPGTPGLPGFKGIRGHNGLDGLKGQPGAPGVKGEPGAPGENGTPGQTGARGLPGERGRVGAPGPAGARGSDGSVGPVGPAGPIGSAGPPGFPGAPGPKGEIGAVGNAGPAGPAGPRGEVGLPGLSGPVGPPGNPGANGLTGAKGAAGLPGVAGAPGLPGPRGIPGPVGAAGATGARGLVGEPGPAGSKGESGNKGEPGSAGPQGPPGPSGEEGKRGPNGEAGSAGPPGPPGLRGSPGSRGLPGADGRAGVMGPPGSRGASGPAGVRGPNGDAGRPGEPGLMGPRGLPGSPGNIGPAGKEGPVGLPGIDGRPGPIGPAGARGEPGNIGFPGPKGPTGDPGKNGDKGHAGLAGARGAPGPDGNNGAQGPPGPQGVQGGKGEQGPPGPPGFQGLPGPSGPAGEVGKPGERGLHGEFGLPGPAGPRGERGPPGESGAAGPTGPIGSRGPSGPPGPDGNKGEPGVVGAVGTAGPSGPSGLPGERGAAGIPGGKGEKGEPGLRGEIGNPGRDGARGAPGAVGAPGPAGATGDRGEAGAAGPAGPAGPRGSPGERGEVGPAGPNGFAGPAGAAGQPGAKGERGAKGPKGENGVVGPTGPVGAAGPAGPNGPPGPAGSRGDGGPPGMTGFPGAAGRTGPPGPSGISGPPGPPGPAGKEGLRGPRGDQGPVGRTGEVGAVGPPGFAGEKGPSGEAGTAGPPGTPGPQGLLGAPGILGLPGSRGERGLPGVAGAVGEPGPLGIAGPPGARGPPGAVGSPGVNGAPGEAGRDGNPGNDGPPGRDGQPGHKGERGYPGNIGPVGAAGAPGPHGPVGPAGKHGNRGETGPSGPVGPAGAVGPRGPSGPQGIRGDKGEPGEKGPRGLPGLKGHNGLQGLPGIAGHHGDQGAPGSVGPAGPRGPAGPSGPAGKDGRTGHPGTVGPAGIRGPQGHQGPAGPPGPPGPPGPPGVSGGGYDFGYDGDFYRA
Method: (§1) An additional 90 μL is reserved in a HPLC glass vial as a measure of the total concentration.

[2] = target: T2, rat collagen, acid soluble, type I, rat tail (Upstate 08-115) (rat, UniProt P02454 152-1207; P02466 86-1125); experiment: dried collagen assay
T2 construct: tissue extract, gelled and dried in wells; also called dried rat collagen
T2 sequence (P02454 152-1207, chain 1 of 2): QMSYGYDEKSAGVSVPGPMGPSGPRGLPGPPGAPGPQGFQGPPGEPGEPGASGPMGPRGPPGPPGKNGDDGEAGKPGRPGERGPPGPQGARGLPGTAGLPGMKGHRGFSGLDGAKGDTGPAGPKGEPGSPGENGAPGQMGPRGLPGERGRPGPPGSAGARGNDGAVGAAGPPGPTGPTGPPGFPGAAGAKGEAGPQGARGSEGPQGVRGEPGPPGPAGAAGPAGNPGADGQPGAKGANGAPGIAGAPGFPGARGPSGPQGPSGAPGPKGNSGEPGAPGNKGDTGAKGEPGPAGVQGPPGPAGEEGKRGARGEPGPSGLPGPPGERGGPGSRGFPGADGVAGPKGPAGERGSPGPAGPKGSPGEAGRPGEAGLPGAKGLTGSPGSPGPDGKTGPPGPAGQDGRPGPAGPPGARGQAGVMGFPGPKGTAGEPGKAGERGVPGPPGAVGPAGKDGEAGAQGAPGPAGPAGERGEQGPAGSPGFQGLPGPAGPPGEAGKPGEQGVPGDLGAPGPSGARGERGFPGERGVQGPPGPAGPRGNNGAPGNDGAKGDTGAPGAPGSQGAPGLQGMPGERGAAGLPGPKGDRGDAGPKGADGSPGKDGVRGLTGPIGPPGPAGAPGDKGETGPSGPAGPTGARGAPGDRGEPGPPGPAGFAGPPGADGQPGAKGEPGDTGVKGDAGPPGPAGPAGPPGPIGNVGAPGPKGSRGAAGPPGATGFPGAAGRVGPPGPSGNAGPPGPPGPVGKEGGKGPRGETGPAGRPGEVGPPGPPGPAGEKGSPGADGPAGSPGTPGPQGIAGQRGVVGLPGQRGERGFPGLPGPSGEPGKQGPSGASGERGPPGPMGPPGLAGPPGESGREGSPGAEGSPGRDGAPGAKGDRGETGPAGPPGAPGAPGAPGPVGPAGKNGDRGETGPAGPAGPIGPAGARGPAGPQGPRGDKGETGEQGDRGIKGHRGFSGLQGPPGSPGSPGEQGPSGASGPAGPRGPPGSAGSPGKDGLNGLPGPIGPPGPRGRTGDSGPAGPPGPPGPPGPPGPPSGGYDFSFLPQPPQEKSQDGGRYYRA
T2 sequence (P02466 86-1125, chain 2 of 2): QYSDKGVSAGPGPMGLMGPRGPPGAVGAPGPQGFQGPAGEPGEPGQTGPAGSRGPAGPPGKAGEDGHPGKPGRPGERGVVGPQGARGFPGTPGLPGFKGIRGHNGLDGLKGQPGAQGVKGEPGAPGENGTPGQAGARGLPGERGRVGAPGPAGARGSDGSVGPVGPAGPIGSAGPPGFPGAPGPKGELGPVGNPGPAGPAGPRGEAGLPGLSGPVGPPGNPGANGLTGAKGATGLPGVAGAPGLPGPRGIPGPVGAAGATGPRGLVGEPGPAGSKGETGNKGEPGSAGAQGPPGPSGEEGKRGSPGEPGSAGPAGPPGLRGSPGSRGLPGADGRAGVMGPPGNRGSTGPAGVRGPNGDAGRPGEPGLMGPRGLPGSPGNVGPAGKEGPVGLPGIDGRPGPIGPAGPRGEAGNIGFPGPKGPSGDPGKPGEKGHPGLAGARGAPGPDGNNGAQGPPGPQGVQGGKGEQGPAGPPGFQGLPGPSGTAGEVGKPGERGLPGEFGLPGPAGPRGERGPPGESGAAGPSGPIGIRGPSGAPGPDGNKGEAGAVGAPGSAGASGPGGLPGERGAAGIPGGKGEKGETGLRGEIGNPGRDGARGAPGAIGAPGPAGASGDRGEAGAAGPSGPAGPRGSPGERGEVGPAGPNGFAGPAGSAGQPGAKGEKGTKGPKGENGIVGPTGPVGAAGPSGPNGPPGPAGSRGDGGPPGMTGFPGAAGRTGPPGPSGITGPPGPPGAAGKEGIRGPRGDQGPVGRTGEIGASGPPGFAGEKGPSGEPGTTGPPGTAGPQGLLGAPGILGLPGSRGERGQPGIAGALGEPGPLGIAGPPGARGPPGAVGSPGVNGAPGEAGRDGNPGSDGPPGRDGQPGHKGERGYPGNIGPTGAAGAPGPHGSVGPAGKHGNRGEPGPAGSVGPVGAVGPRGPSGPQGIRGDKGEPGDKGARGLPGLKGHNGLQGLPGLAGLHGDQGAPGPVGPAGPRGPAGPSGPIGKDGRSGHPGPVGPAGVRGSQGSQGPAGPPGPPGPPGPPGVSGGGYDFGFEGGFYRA
Method: as §1

| Binder | % bound [1] [%] | % bound [2] [%] |
| --- | --- | --- |
| B1 | 12 | 19 |
| B2 | 9 | 24 |
| B3 |  | 12 |
| B4 | 10 | 2 |
| B5 | 53 | 37 |
| B6 | 2 | 2 |
| B7 | 9 | 23 |
| B8 | 21 | 37 |
| B9 | 7 | 12 |
| B10 | 14 | 1 |
| B11 | 72 | 88 |
| B12 | 2 | 1 |
| B13 | 0 | 24 |
| B14 | 19 | 14 |
| B15 | 71 | 71 |
| B16 | 39 | 23 |
| B17 | 55 | 55 |
| B18 | 38 | 28 |
| B19 |  | 1 |
| B20 |  | 27 |
| B21 |  | 0 |
| B22 |  | 0 |
| B23 | 12 |  |
| B24 | 12 |  |
| B25 | 12 |  |
| B26 | 11 |  |

| Binder | % bound [1] [%] | % bound [2] [%] |
| --- | --- | --- |
| B27 | 11 |  |
| B28 | 10 |  |
| B29 | 10 |  |
| B30 | 10 |  |
| B31 | 9 |  |
| B32 | 9 |  |
| B33 | 8 |  |
| B34 | 8 |  |
| B35 | 3 |  |
| B36 | 3 |  |
| B37 | 3 |  |
| B38 | 1 |  |
| B39 | 1 |  |
| B40 | 10 |  |
| B41 | 1 |  |
| B42 | 12 |  |
| B43 | 8 |  |
| B44 | 8 |  |
| B45 | 45 |  |
| B46 | 2 |  |
| B47 | 1 |  |
| B48 | 1 |  |
| B49 | 1 |  |
| B50 | 34 |  |
| B51 | 28 |  |
| B52 | 34 |  |
